Where two headings read alike, the source gives them in different places. Starred links: 1 amine or outer side, 2 acyl side, 3 side chain; linkers in the order of their positions; H or OH if unused. Positions of bridges follow the written chain, without caps; N, C: chain ends. Non-standard residues stand in square brackets, D forms with d. Primed or numbered codes have the meaning given here. *: point of attachment. PyrS2″ = (S)-3-amino-1-((pent-4-en-1-yloxy)carbonyl)pyrrolidine-3-carboxylic acid (stapling residue), C=CCCCOC(=O)N1CC[C@@](N[*:1])(C(=O)[*:2])C1; B5(4) = 2,2-bis(4-pentenyl)glycine = 2-amino-2-(pent-4-en-1-yl)hept-6-enoic acid (stitching residue), C=CCCCC(CCCC=C)(N[*:1])C(=O)[*:2]; B5(5) = 2,2-bis(4-pentenyl)glycine, 2-amino-2-(pent-4-en-1-yl)hept-6-enoic acid (stitching residue), C=CCCCC(CCCC=C)(N[*:1])C(=O)[*:2]; TfeGA = (S)-2-amino-3-((carboxymethyl)(2,2,2-trifluoroethyl)amino)propanoic acid, O=C([C@H](CN(CC(=O)[*:3])CC(F)(F)F)N[*:1])[*:2]; MorphAsn = (S)-2-amino-4-morpholino-4-oxobutanoic acid, O=C(C[C@H](N[*:1])C(=O)[*:2])N1CCOCC1; B5 = 2-amino-2-(pent-4-en-1-yl)hept-6-enoic acid, C=CCCCC(CCCC=C)(N[*:1])C(=O)[*:2]; Phe(3-CF3) = N[C@@H](Cc1cccc(C(F)(F)F)c1)C(=O)O; Phe(3-COOH) = N[C@@H](Cc1cccc(C(=O)O)c1)C(=O)O; 2F3MeF = Cc1cccc(C[C@H](N[*:1])C(=O)[*:2])c1F; Phe(2-Cl) = N[C@@H](Cc1ccccc1Cl)C(=O)O; Bta = N[C@@H](Cc1csc2ccccc12)C(=O)O; Lys(iPr) = CC(C)NCCCC[C@H](N)C(=O)O; αAllylPro = C=CC[C@@]1(C(=O)O)CCCN1; tBuAla = CC(C)(C)C[C@H](N)C(=O)O; Cha = N[C@@H](CC1CCCCC1)C(=O)O; S8 = C=CCCCCCC[C@](C)(N)C(=O)O; Thr(ol) = C[C@@H](O)[C@H](N)CO; Alaol = C[C@@H](CO)N*
T1: beta-catenin in DLD1 TCF/LEF luciferase reporter cells (UniProt P35222 1-781)
T1 sequence (looked up): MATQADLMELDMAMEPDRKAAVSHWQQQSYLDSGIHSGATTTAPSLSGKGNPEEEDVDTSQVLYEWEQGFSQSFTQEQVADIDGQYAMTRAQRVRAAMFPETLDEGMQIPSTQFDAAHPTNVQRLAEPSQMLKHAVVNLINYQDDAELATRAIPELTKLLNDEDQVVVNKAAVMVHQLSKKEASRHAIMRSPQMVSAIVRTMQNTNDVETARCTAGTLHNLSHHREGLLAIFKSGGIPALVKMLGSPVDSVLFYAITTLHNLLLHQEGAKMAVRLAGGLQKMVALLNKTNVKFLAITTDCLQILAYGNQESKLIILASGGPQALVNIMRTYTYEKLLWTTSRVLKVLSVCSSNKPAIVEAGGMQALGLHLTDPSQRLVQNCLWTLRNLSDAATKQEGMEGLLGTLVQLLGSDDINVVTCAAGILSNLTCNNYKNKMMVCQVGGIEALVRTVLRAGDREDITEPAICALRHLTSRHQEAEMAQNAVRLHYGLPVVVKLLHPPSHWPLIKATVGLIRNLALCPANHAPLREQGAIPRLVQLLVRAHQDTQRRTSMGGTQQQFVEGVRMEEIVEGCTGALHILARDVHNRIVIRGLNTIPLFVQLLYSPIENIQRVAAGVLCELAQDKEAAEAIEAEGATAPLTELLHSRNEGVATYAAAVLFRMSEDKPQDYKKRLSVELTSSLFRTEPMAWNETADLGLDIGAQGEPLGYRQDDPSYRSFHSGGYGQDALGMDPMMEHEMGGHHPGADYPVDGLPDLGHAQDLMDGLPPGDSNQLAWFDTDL

T2: beta-catenin in DLD1 TCF/LEF reporter cells (UniProt P35222 1-781)
T2 sequence (looked up): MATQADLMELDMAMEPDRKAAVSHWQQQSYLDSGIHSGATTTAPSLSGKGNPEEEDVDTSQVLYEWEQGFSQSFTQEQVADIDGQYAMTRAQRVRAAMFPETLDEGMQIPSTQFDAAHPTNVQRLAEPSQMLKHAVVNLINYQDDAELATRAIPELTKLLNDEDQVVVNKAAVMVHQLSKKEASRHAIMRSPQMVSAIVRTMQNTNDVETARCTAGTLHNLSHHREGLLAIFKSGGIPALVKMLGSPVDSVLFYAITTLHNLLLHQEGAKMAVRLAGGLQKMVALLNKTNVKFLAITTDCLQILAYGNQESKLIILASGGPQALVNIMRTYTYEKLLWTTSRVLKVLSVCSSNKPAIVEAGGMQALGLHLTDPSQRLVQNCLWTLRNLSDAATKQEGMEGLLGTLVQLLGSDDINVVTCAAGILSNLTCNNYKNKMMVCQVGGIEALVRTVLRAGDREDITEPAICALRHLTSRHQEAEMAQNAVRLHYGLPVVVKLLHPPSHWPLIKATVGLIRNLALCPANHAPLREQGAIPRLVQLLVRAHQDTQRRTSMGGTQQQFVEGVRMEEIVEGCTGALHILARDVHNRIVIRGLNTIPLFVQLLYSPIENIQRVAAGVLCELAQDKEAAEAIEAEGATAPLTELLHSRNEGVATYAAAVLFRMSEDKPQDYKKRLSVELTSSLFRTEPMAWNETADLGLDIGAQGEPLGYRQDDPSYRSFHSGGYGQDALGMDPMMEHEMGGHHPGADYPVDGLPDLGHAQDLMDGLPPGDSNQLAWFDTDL

T3: B-cat-Halo (UniProt P35222 1-781)
T3 sequence (looked up): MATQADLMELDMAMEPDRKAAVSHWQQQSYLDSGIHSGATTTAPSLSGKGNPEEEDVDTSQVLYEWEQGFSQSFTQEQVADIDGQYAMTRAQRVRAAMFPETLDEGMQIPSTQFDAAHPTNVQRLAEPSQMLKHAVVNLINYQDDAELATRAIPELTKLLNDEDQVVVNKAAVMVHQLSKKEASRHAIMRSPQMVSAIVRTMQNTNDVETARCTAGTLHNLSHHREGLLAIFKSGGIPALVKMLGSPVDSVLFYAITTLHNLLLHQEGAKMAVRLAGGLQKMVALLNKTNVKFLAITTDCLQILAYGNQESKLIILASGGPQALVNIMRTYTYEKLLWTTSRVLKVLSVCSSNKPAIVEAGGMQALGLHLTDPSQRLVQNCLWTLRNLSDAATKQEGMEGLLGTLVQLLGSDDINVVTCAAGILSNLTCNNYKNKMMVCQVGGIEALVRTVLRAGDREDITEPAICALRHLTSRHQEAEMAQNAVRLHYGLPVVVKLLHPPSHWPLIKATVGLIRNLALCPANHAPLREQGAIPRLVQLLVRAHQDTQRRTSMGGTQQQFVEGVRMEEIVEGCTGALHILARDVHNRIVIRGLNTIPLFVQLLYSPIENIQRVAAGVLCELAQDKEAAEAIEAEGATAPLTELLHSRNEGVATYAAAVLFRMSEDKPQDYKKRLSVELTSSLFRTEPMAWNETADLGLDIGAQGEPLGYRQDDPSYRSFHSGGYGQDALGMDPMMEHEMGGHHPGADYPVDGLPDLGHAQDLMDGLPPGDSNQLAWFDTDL

T4: B-cat-Halo (UniProt P35222 1-781)
T4 sequence (looked up): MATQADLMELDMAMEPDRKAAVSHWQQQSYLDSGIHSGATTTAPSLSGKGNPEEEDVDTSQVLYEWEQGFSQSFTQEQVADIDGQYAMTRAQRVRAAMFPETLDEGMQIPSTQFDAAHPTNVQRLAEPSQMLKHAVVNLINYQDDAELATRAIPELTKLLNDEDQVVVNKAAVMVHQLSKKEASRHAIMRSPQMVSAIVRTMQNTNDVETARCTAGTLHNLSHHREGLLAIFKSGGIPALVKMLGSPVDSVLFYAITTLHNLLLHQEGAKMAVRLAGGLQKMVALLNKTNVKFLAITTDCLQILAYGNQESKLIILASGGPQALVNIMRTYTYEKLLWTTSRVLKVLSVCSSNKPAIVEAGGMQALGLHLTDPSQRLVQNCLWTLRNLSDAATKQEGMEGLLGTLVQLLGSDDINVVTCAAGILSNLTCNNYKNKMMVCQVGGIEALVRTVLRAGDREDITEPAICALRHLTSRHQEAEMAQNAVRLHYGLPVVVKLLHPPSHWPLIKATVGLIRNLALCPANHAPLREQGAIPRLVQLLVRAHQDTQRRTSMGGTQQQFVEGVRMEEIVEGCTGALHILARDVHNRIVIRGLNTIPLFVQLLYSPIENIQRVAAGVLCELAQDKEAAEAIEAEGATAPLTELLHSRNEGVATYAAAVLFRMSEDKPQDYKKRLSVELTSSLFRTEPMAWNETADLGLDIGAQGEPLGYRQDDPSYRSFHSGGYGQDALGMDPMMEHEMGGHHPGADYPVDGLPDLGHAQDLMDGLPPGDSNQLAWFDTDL

T5: full-length beta-Catenin (Uniprot ID P35222) (Homo sapiens (Human), UniProt P35222 2-781)
T5 construct: The AlphaScreen assay used a Histidine (Nickel Chelate) detection kit, so a His tag is likely, but no tag is described; also called B-Catenin; bCat
T5 sequence: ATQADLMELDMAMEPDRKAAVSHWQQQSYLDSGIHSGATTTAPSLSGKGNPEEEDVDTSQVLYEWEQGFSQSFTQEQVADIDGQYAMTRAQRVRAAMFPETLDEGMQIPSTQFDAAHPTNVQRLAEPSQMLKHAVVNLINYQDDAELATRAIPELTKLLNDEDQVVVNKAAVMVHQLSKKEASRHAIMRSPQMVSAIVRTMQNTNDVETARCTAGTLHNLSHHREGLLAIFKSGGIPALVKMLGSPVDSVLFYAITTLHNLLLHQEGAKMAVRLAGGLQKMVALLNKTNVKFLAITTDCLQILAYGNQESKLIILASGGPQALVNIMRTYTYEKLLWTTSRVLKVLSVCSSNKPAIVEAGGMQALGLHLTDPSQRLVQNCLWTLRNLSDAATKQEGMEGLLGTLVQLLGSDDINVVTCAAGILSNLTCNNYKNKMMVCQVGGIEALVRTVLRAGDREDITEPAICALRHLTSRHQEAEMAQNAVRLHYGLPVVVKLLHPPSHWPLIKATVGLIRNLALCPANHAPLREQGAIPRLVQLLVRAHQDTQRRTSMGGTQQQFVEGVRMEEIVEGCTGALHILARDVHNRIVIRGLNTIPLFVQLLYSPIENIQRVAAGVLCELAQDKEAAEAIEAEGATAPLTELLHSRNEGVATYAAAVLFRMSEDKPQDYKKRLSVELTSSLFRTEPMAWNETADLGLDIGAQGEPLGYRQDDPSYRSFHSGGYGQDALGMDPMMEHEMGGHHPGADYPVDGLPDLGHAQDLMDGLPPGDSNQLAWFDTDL


Legend:
[1] = target: T1, beta-catenin in DLD1 TCF/LEF luciferase …; experiment: cell-based or functional assay
[2] = target: T2, beta-catenin in DLD1 TCF/LEF reporter …; experiment: cell-based or functional assay
B-cat-Halo [3] = target: T3, B-cat-Halo; experiment: cell-based or functional assay
B-cat-Halo [4] = target: T4, B-cat-Halo; experiment: cell-based or functional assay; remark: listed apart in the source
[5] = target: T5, full-length beta-Catenin (Uniprot ID …); experiment: fluorescence polarization competition: full-length beta-catenin + 5FAM-TCF4(10-53) probe, peptide titrated
Procedure, shortened: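 Incubate 60 minutes at 20° C. away from light, then read polarization in duplicate. Fit to 1:1 binding with hill slope.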

[6] = target: T5, full-length beta-Catenin (Uniprot ID …); experiment: AlphaScreen competition: full-length beta-catenin + biotin-TCF4(10-53) probe, peptide titrated
Procedure, shortened: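 Titrated peptide was preincubated 15 minutes at 20° C, then donor and acceptor beads were added for 60 minutes at 20° C protected from light. Reads were done in duplicate, and data were fitted to a 1:1 binding model with Hill slope; concentrations are final.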

| Binder | DLD1 reporter assay Abs IC50 [2] [µM] | NanoBRET Abs IC50 (B-cat-Halo [3]) [µM] | NanoBRET Abs IC50 (B-cat-Halo [4]) [µM] | further results |
| --- | --- | --- | --- | --- |
| Ac-[αAllylPro]D[tBuAla][B5(5)]D[Phe(3-COOH)]AAFL[PyrS2″][2F3MeF][Bta]QL[dQ]-NH2 (staple 1-4, 4-11) [I-2398] |  |  |  | DLD1 4% Abs IC50 [1]: 1.3 µM |
| Ac-[αAllylPro]D[tBuAla][B5(4)]D[TfeGA]AAFT[PyrS2″][Phe(2-Cl)][Bta]-Alaol (staple 1-4, 4-11) [I-1242] | 4.8 | > 20 |  |  |
| Ac-[αAllylPro]D[tBuAla][B5(4)]DDAAFT[PyrS2″][Phe(2-Cl)][Bta][Thr(ol)] (staple 1-4, 4-11) [I-1245] | 7.3 | 12.2 |  |  |
| Ac-[αAllylPro]DA[B5]DDAAFV[S8][Phe(3-CF3)]WQ-NH2 (staple 1-4, 4-11, Stapled peptide composition; also called Ac-PL3-Asp-Ala-B5-Asp-Asp-Ala-Ala-Phe-Val-S8-3F3MeF-Trp-Gln-NH2) [I-250] |  |  |  | EC50 [5]: 5 µM; EC50 [6]: 1.2 µM |

Second part, led by results:

| DLD1 reporter assay Abs IC50 [2] [µM] | NanoBRET Abs IC50 (B-cat-Halo [3]) [µM] | NanoBRET Abs IC50 (B-cat-Halo [4]) [µM] | Binder | further results |
| --- | --- | --- | --- | --- |
|  |  | > 20 | Ac-[αAllylPro]D[Cha][B5(5)]DQ[Lys(iPr)]AFL[PyrS2″]F[Bta]K-NH2 (staple 1-4, 4-11) [I-2429] |  |
|  |  | > 20 | Ac-[αAllylPro]N[Cha][B5(5)]DQ[Lys(iPr)]AFL[PyrS2″]F[Bta][MorphAsn]-NH2 (staple 1-4, 4-11) [I-2426] |  |

Reference: patent publication US20240116985A1 (published 2024)
